The values below come from ChEMBL document CHEMBL2073843, “Characterization of the role of polar amino acid residues within predicted transmembrane helix 17 in determining the substrate specificity of multidrug resistance protein 3” (Biochemistry, 2003).

Substrate in the series: C[C@]12CC[C@@H]3c4ccc(O)cc4CC[C@H]3[C@@H]1CC[C@@H]2O[C@@H]1O[C@H](C(=O)O)[C@@H](O)[C@H](O)[C@H]1O
Conditions: HEK293; Membrane vesicle.
Description: TP_TRANSPORTER: uptake in membrane vesicles from MRP3-expressing HEK cells

B1: Multidrug resistance associated protein (Homo sapiens), Q96QA9 (protein)
chain: MDALCGSGELGSKFWDSNLSVHTENPDLTPCFQNSLLAWVPCIYLWVALPCYLLYLRHHCRGYIILSHLSKLKMVLGVLLWCVSWADLFYSFHGLVHGRAPAPVFFVTPLVVGVTMLLATLLIQYERLQGVQSSGVLIIFWFLCVVCAIVPFRSKILLAKAEGEISDPFRFTTFYIHFALVLSALILACFREKPPFFSAKNVDPNPYPETSAGFLSRLFFWWFTKMAIYGYRHPLEEKDLWSLKEEDRSQMVVQQLLEAWRKQEKQTARHKASAAPGKNASGEDEVLLGARPRPRKPSFLKALLATFGSSFLISACFKLIQDLLSFINPQLLSILIRFISNPMAPSWWGFLVAGLMFLCSMMQSLILQHYYHYIFVTGVKFRTGIMGVIYRKALVITNSVKRASTVGEIVNLMSVDAQRFMDLAPFLNLLWSAPLQIILAIYFLWQNLGPSVLAGVAFMVLLIPLNGAVAVKMRAFQVKQMKLKDSRIKLMSEILNGIKVLKLYAWEPSFLKQVEGIRQGELQLLRTAAYLHTTTTFTWMCSPFLVTLITLWVYVYVDPNNVLDAEKAFVSVSLFNILRLPLNMLPQLISNLTQASVSLKRIQQFLSQEELDPQSVERKTISPGYAITIHSGTFTWAQDLPPTLHSLDIQVPKGALVAVVGPVGCGKSSLVSALLGEMEKLEGKVHMKGSVAYVPQQAWIQNCTLQENVLFGKALNPKRYQQTLEACALLADLEMLPGGDQTEIGEKGINLSGGQRQRVSLARAVYSDADIFLLDDPLSAVDSHVAKHIFDHVIGPEGVLAGKTRVLVTHGISFLPQTDFIIVLADGQVSEMGPYPALLQRNGSFANFLCNYAPDEDQGHLEDSWTALEGAEDKEALLIEDTLSNHTDLTDNDPVTYVVQKQFMRQLSALSSDGEGQGRPVPRRHLGPSEKVQVTEAKADGALTQEEKAAIGTVELSVFWDYAKAVGLCTTLAICLLYVGQSAAAIGANVWLSAWTNDAMADSRQNNTSLRLGVYAALGILQGFLVMLAAMAMAAGGIQAARVLHQALLHNKIRSPQSFFDTTPSGRILNCFSKDIYVVDEVLAPVILMLLNSFFNAISTLVVIMASTPLFTVVILPLAVLYTLVQRFYAATSRQLKRLESVSRSPIYSHFSETVTGASVIRAYNRSRDFEIISDTKVDANQRSCYPYIISNRWLSIGVEFVGNCVVLFAALFAVIGRSSLNPGLVGLSVSYSLQVTFALNWMIRMMSDLESNIVAVERVKEYSKTETEAPWVVEGSRPPEGWPPRGEVEFRNYSVRYRPGLDLVLRDLSLHVHGGEKVGIVGRTGAGKSSMTLCLFRILEAAKGEIRIDGLNVADIGDPILFSGTLRMNLDPFGSYSEEDIWWALELSHLHTFVSSQPAGLDFQCSEGGENLSVGQRQLVCLARALLRKSRILVLDEATAAIDLETDNLIQATIRTQFDTCTVLTIAHRLNTIMDYTRVLVLDKGVVAEFDSPANLIAARGIFYGMARDAGLA
For B1, the Km worked out at 29 µM.
